Assay: soluble fraction after stress (log2 fold change); higher = more stays soluble; pooled small domains, quantitative proteomics
Conditions: stress: 50 degC
Procedure, shortened: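 Quantitative proteomics served as the high-throughput read-out for pooled custom libraries of small protein domains. Each was stressed at 50°C. Aggregation propensity is expressed as the base-two log fold change in soluble protein after stress. A higher value means a larger share of the protein remains in solution.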

| Sequence | soluble fraction (log2) |
| --- | --- |
| HMGNWEQQLRSWADGELATGKQDILTTAVPAFERALIETALSHTNGRKRDAAELLGWGRNTLTRKLKELGM | -0.371 |
| HMNGDYFEYRYAVNGSRSTPPSLSKTSRNPSGWSTTVPTVGNLQYLWFTVAKINGETNSLIQNWSTPARQT | -0.13 |
| HMDEEGDALDREYEDQIRLGDEAFDAEDWTSAQRAYTAALELRPDERYPKNRLRRLASLQEDV | 0.0779 |
| HMSSGKTGTITLQPKQTVYGITKQYKISEADLRKLNPQLDSNLKIGDKITLPLDNIQRYSDSSSNVAQT | 0.211 |
| HMWAVDFVLLDKDDQRIGNAVAYRDDRTKGMDEEVYRTVPEEELYASTGIQKQIFNSIYQLMAWKK | 0.0151 |
| HMTVDTSELEEMIDDLIKEHPNEWERYSSGEKKVQGFFVGQVMKATSGQADGKAINQILSKRVKS | 0.354 |
| HMEAPNELLVPEGARPARADRVLAAAFPEHSRTALQRAFDAGLVRRANLVLSRDTAVAGGDRIAFSLPAV | -0.00557 |
| HMIKIEDILNVESVELSDSEYKKFLNGILINVKNLENGWAKVYSGNEFKGFGIVDKNLLKRKIVID | -0.426 |
| HMNFHLEHHIAELLYRSIRGELSDFERQELNQWRSDSPMHETLFMRLQDDEYIDEELGVFIK | -1.99 |
| HMQDSSGENNPQSKLTQQQVDLLMKDLKETNVEFDKLAEKYNVSIKTIRNVNTGIAWRKNDITYPIREP | -0.204 |
| HMERMTSTEILTRDFLTTNSKIVKKSTIEELSEIIHVSPATIIRTVKKMGYSGFSEYKNELINQ | -0.06 |
| HMDLPDYYFRVRENGAVVFRVGTENRQRRIEMVEIATVNVKNGNIKPHGEVDLTKADRLAIGEWLAARQAQ | -1.36 |
| HMIEYYDDEELDVFKGRQSDNYTNKEIEQFAEVLHTMRQDEVKGWNRSLILRSINLPDSLKDEVIMLI | -0.672 |
| HMNSKSFIFHIEDEEGIRLDVFLADNLPDVSRSYVQKLIDEEHVKVNGQSAKSRLKTVSGMEITVDVPAPK | -0.321 |
| HMLEDIDNSIKKEIILEHYDKMLEFHGDYGAIIFRKLLHAYSKGYTGANEFRDLVNQISDKNIMRDLIESF | -1.19 |
| HMVSSVAAISQMIDEKDRYTSEHSHRVAEYARLIGAHMGFAGEELDSLYRSALLHDIGKIAVPDAILNK | -0.338 |
| HMDFPYISGIEIAAIKNREFIRIETDKAQEIAIALDKSGIPFSARFSDAEMVLTYDGSYKEQVEDIIAKA | -0.0417 |
| HMNLAPLLTEYVQINFRRASEMKTYLEQANLISERGFLLADDQTNILMVRETGASIEEIRRTLNRF | -1.77 |
| HMVSDAELTSQATTAITAYPGTSVEVKEGQAHLSGTFATEADKQAAIDALKKIQDVKDVHDMATV | 0.123 |
| HMRLATSELVYRIRALIRDQELQPGERLGSERALAQSLGISRSDLRMALAVLEASHEVIRKIGRAGGIVVS | -3.14 |
| HMSDSAFAEMRRELEALRNSNAEYERALSNFFPEAEDKALAAEAFYQNREYDELVAEREEANVIDGLKR | -0.094 |
| HMIMTIYEYIARNNPTGAKRVIESFGYVVTQPKKMGDNLRMLVAQEGEPALKAVVDLHPDKDLILEV | -2.87 |
| HMPASVEYIRLAAEQMTGQQVTIIEQPGNYAFILRIHLNDIYSLDLAALRARIDELKPAHLTYTVEQYD | -2.71 |
| HMGGREEAGTDIARLLGYINDIHGEELIAKLEYYQKMLGSENFAVLMSRLPDGQKKELREQNLYSEYV | -0.145 |
| HMVQIQDIAFSEFLNELEKGNILDVNIKGDLINGNMLDGKKFKTYAPYDPSLVEKLSKQNVTINVEPVN | 0.0938 |
| HMIFRPALITDLDAVERHYTELLTREAETGRSSTNWSLGVYPTRQTATAAQAAGTLWVLEREGQVVASVI | -0.245 |
| HMDDIVFPNPTKNQINVSIDGLKNIYNLSGKLLISTNDKIIDVSILKAGVYFINTNEQFYKFVK | -1.3 |
| HMPVQSNRDALLDIGQTLQVQAWDAQGSARVSYRGSDWTAEFRGPGAAAPGLHRIIAVQGNRLIVEPA | 0.174 |

| Sequence | soluble fraction (log2) |
| --- | --- |
| HMNVYAGTMINVVGLQVEDAASRLRGLFYSVKIVEEESQEPDGKVLRQNIAEGTKDLEAWTLVELTVSKYV | -0.872 |
| HMKYKWLAGQLRRELLENGGKKGYKLPTELELARRYQLSRQTVRRALQLLEEEGLILRRQGSGAYATGKPP | -0.316 |
| HMVSATKAFVNGGNIVVSSPKATRVAVYNVAGQKVAEQAFAGKATIKASDFAKGIYVLKFNDNTVLKLT | -0.518 |
| HMDNLKELDEILETYGKKKGYLITILQKAQDAYGYISIDIMNRISEFTGIKVAKIYGVATFYAQFRL | 0.146 |
| HMARYSMLEEQLLQLINKHGTMSTPKLVEATGAPRSTVTYQLRKLLESGTIERTQPARSPKQSYRIKS | -0.238 |
| HMRRPRGVFNLVPGKRFGFITPDGGGEDVFAHLANVRAGHVAEDRNAVEYGIGRGPDGRDQAVDIVPMP | -0.128 |
| HMQEVILEKIQLTYLSADKLSKMAEQFSIPVKMYWVDENPMMLMVMGNESDIATFKKVLTQIDIPENKS | 0.0714 |
| HMEQINVTIQTEKGRIDKVLSEHLPNHSRSQIQQWLKEKHVTVNGETVRANYKVTAGDEIVVTIPEPEV | 0.206 |
| HMIPDGKWKEDPISDGQKNFINSLIEQAIDAGQDELGAEAKKYLASGEATKGNASAMIDKLKSAL | 0.392 |
| HMIKLIKKDTNISELKMSKMPWDVMLYGKPYQVVSIKGYVHTIGGRRGENDLWMYPRDESPTYENLIEFQ | -2.61 |
| HMELMKPPGYWQSLENAIYESKKVIKEHGFDTLPSSNKLRELDYHGLSRAISVHHSGFPNFREIMNQELGI | 0.172 |
| HMSERVVVPDLTGKDLVAAQSELREISLAGREEGPGDKVRRQFPVAGVKVPKDTVVILYTED | 0.125 |
| HMPAASDALAGELAQIARLDIAKLLAGDLSEADWSRITSATVQLSERHPDASDELTALVERIDTAYSARAT | 0.0455 |
| HMSANVSMEEALRRTSQAHSLAGKWMRRVLQMAQGRDLIEQMQREAQEAHLPELIGMSVQLEFIRRG | -0.11 |
| HMDNPLSQQEKRILQLISLGKTNQEIADILYLSNGTVRNYISSILNKLSANNRVEAARIAEEHGW | -0.73 |
| HMLLQENRKLHSKLEELQLISRAKAVLIEYLKLTEPQAHRYIEKQAMDLGLTRPQVALNILKTYE | -0.202 |
| HMTEEVIIQNYIGKNFNDVRDELEAKGITVDEPNMKYSDEFKENTIMAQSIKPGQPLKPGGFNSIKFDVS | 0.211 |
| HMRTITIDDSIAGKRLDEALTLLGAESSRTKVKLLFSSPNGVLVNGEKEKPHYRVEAGDVIQFGELPKK | 0.271 |
| HMGIDVSAFSDTALEVLRLQAAGYTTREIAQQLHITQRTVKYHASENYRKLDARNLVDAVQIAQSLHI | -1.41 |
| HMYSLGPKERSIVSFIANRPGSRSGQIAKSLQIPLPTIKRILNGLVENKVIARHGIGAGTNYVVEDQA | -0.594 |
| HMDKELILLWDRVKSKVWQMDIQDSQVANWFQRNYHLTVRLRDFDPPVPPDKFTAEQLASFIKDIERHT | -0.597 |
| HMVLNVMIEEEVHREIIAAISKLPKERRRVVELSMAGFSQEEIAEKMAISVNTVKTIKLRAYRVLRERLKG | -3.18 |
| HMQVITEPFQEKYREFINMSTVTQRLEERETLSFTAQTVEGRWLTIIIVPQGYDKTGKLSTVLVANR | 0.179 |
| HMGQVAKPPLKELGADPVTGKPMVLKDGRFGPYVTDGEYNASLRKDDDIETIGVERAAELLQIRREKGP | -0.081 |
| HMQKADFDYGDYVDLGLAMGRQSRQLREAVGIKLGIGYANSKRFYQRLQTFGISLAELKQAVEEAENDQQN | -0.735 |
| HMFDNPLSERDKEILNHISMGKSNKEIANQVGLAEQTIKNTISVILDKTFTSNRAQAASMATKNKW | 0.547 |
| HMRISKRQLILESAAAIINEKGADYLTLDAVAQRAGISKGGLFYHFKSKDELIKELVNYANN | -0.14 |
